The target of data set [1] is mouse fibulin-2 construct S427-G545, three anaphylatoxin-like modules (mutant C500L) (mouse) (UniProt P37889). The data set can be described thus: SEC-MALS; 50 µL of ~2 mg/mL SEC purified protein on Superdex 200 Increase 10/300, 20 mM Tris-HCl pH 8, 150 mM NaCl, 0.5 mL/min. (In general: SEC sorts molecules by how far they enter the pores of the column.)
Data set [2] concerns the molecule itself. The data set is described as above.

The term stoichiometry N denotes a count of units in the complex or per binding partner. Regarding “mouse fibulin-2 construct S427-G545, three anaphylatoxin-like modules (mutant C500L) (from UniProt P37889 427-545) (domain or fragment)”, the stoichiometry N in data set [1] was 2.

B1: mouse fibulin-2 construct S427-G545, three anaphylatoxin-like modules (wild-type) (domain or fragment, UniProt P37889 427-545, looked up)
chain: STKDLIETCCAAGQQWAIDNDECQEIPENGAQSDICRIAQRQCCISYLKEKSCVAGVMGAKEGETCGAEDNDTCGVSLYKQCCDCCGLGLRVRAEGQSCESNPNLGYPCNHVMLSCCEG
notes: fibulin-2, mouse, residues S427-G545 (three anaphylatoxin-like modules); numbering is according to the full-length protein; Homodimer linked by an inter-molecular disulfide bond via C500; 8 intra-molecular disulfide bonds in each chain; also called MH6M-S427-G545; pAS79 construct; source: E. coli BL21 (DE3) with the CyDisCo plasmid pMJS205 (Erv1p and PDI), purified (nickel IMAC, SEC); not shown: …
With B1, the “stoichiometry N” value in data set [2] was 2.

The values are drawn from publication PMC11220139, “Biophysical and structural studies of fibulin-2” (Scientific Reports, 2024).
